Here are results for 2 molecules from article PMC9879077.

Series [1] concerns the target T1, c-Fos;c-Jun (mouse (cDNA from ST2 cells);mouse (cDNA …, UniProt P01101;P05627 1-380;1-334, |)). Description: EMSA. A general note: A gel shift assay detects complexes by their altered migration in electrophoresis.
Series [2] concerns the target T1, c-Fos;c-Jun. Description: EMSA. The source holds these as a separate data set.

Read-outs that look alike come from different tables or passages of the source.

T1 sequence (P01101 whole entry, chain 1 of 2): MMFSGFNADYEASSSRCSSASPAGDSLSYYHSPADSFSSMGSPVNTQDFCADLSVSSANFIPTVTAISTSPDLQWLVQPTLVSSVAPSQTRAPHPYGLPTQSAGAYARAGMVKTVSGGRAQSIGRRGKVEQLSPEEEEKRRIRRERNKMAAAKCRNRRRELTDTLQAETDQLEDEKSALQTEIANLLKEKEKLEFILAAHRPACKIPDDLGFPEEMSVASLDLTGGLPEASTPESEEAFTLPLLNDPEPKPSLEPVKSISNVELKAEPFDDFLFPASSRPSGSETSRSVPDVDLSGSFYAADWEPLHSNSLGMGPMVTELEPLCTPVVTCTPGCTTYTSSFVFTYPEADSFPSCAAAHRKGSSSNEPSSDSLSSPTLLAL
T1 sequence (P05627 whole entry, chain 2 of 2): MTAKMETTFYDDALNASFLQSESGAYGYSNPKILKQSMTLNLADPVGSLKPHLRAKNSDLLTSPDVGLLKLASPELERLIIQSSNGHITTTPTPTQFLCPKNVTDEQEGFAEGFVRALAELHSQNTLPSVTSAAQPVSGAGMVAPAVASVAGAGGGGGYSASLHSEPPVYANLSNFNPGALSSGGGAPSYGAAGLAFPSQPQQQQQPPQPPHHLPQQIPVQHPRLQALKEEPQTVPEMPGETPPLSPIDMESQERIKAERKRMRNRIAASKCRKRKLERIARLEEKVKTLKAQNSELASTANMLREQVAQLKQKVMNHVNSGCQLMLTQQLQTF

B1: Oligo incl TRE (dsDNA)
DNA 1: TGAGTCAATGAGTCAGCTGACTCATTGACTCA
DNA 2: GGTGAGTCAATGAGTCAGCTGACTCATTGACTCA
With B1, the binding result in series [1] is reported as “binds”.

B2: Oligo incl mutant TRE (dsDNA)
DNA 1: TGTGACAATGTGACAGCTGTCACATTGTCACA
DNA 2: GGTGTGACAATGTGACAGCTGTCACATTGTCACA
As for B2, the binding result in series [2] is listed as “no binding”.
